Results taken from the supplement of paper PMC10567573.
± gives the standard deviation.

Test: protein stability index of a GFP-peptide fusion (GPS, HEK-293T) (PSI 1-6); higher = more stable
[1] = treatment: DMSO, c terminus: a fixed tail appended
[2] = treatment: MLN4924 1 uM, 8 h, c terminus: a fixed tail appended
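Also: 24-mer peptide tiles fused after GFP, lentivirally expressed, FACS-sorted into six equal bins by GFP/DsRed ratio, decoded by Illumina sequencing, PSI is the read-weighted mean bin number.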

| Sequence | protein stability index [1] | protein stability index [2] | protein stability index (treatment: DMSO, c terminus: native) | protein stability index (treatment: MLN4924 1 uM, 8 h, c terminus: native) |
| --- | --- | --- | --- | --- |
| QISMELAKVNYVKNNICFMSHHQE [SLC2A12] | 2.6 ± 0.16 | 2.41 ± 0.27 | – | – |
| QKEDVKPYQVNGVNPAYPESRYTS [ETS1] | 4.53 ± 0.18 | 4.48 ± 0.15 | – | – |
| QLSRLNITYPMLFKLTNKNSDRMT [UFD1] | 2.33 ± 0.14 | 2.58 ± 0.42 | – | – |
| QMGVSAKRRPKAQPTTLVLPPQYV [MED27] | 2.99 ± 0.19 | 3.1 ± 0.19 | – | – |
| QNCTDEGEREAIQKSVTRSCLLEE [POP5] | 5.17 ± 0.3 | 5.3 ± 0.33 | – | – |
| QNFKNRESYPEDTVFYIPEDHKPG [DLC1] | 4.63 ± 0.087 | 4.53 ± 0.44 | – | – |
| QNINAPAPATTSSWEVVRNPLIAS [C22orf31] | 3.65 ± 0.32 | 3.7 ± 0.16 | – | – |
| QNPGKFDELDMSPGDPKWLDVIER [TBC1D10A] | 4.27 ± 0.081 | 4.49 ± 0.28 | – | – |
| QNQHHSASLQASIFSGAASLGYGT [APBB1IP] | 3.19 ± 0.16 | 3.15 ± 0.17 | – | – |
| QPLRPWAGGDVPHKTHQAPASASS [DYRK1B] | 4.54 ± 0.17 | 4.58 ± 0.26 | – | – |
| QPVVDTFDIRILMAKSVKYTVNFL [CARM1] | 2.79 ± 0.7 | 2.62 ± 0.56 | – | – |
| QQFQPAGTDQVCVLEWGAEGVAGK [FCHSD1] | 4.46 ± 0.24 | 4.64 ± 0.23 | – | – |
| QRILRIMCRLEELGLAGRCLTLTP [HDAC6] | 2.39 ± 0.44 | 2.34 ± 0.39 | – | – |
| QRQKYLSLQQMQELSNILNLSYKQ [NANOGP8] | 2.57 ± 0.29 | 2.69 ± 0.15 | – | – |
| QRRHGWNPKDCSENIEVKEGGLYF [SPSB2] | 3.45 ± 0.31 | 3.76 ± 0.46 | – | – |
| QRVVYLEGCGPPLRRWLRANLAAS [TSPAN10] | 2.26 ± 0.33 | 2.11 ± 0.24 | – | – |
| QRYILYWRKRFTEQPITDFCSVIR [ZNF277] | 1.93 ± 0.23 | 2.24 ± 0.26 | – | – |
| QSSGLIRHQRIHTGERPYECNECG [ZSCAN9] | 4.03 ± 0.36 | 4 ± 0.49 | – | – |
| QTGGDVNVEMDAAPGVDLSRILNE [KRT16] | 4.97 ± 0.31 | 5.18 ± 0.085 | – | – |
| QVKLYDIEQQQIRNALENIRKEMK [CRYL1] | 3.14 ± 0.65 | 3.47 ± 0.29 | – | – |
| QVKSRQNKTNKNSVSSCDQEHQSA [SMOC2] | 5.1 ± 0.32 | 5.34 ± 0.16 | – | – |
| RAALISRRHLQFWKSHLRNVQRPL [RHOBTB2] | 2.56 ± 0.13 | 2.56 ± 0.22 | – | – |
| RAALTYTSLEITILTSQPGKEVVK [M1AP] | 2.32 ± 0.19 | 2.49 ± 0.34 | – | – |

| Sequence | protein stability index [1] | protein stability index [2] | protein stability index (treatment: DMSO, c terminus: native) | protein stability index (treatment: MLN4924 1 uM, 8 h, c terminus: native) |
| --- | --- | --- | --- | --- |
| RAIMAHMTVEEIYKDRQKFSEQVF [FLOT1] | 2.52 ± 0.32 | 2.74 ± 0.3 | – | – |
| RAVLGGLSQTDPRAGGGGGGDYGL [PPTC7] | 4.01 ± 0.84 | 3.85 ± 1.5 | – | – |
| RCFWLGMEGLETAEGSNSESSDDD [SDE2] | 5.22 ± 0.42 | 5.09 ± 0.3 | – | – |
| RDRDGRITVAELREAVPALLGEPL [CABP4] | 3.78 ± 0.23 | 3.95 ± 0.35 | – | – |
| REAATKHSKASLPTGEGSISHEEQ [CHCHD6] | 5.3 ± 0.24 | 5.34 ± 0.3 | – | – |
| RELNDRLAVYIDKVRSLETENSAL [LMNB1] | 3.33 ± 0.24 | 3.04 ± 0.34 | – | – |
| REQLQAEASERFAAGYIQCMHEVH [HES6] | 3.62 ± 0.37 | 3.77 ± 0.22 | – | – |
| RERADIGGLMARPEYREWNPELIK [FAM107A] | 4.16 ± 0.12 | 3.8 ± 0.18 | – | – |
| RESRILFSTWNLDHIIEKKRTIIP [DFFB] | 2.35 ± 0.22 | 2.52 ± 0.22 | – | – |
| REVDLNGDGTVDFDEFVMMLSRH [CABP4] | – | – | 4 ± 0.17 | 4.23 ± 0.28 |
| REVEQWFATQTEELNKQVVSSSEQ [KRT33B] | 4.98 ± 0.23 | 4.87 ± 0.17 | – | – |
| REWRCCPGHSGVSCEEVAASSASL [EMID1] | 3.74 ± 0.089 | 3.55 ± 0.31 | – | – |
| RFNKLGLDHLSLGEEPVPHQQVEE [NEK8] | 4.91 ± 0.22 | 4.89 ± 0.26 | – | – |
| RGLRYYYDKNIIHKTAGKRYVYRF [ETS1] | 2.32 ± 0.2 | 2.46 ± 0.18 | – | – |
| RGQEPARADQLCQQELRELRRELE [PRPH] | 4.48 ± 0.36 | 4.53 ± 0.5 | – | – |
| RGRYGPPSRRSENRVVVSGLPPSG [SRSF1] | 4.08 ± 0.14 | 4.16 ± 0.17 | – | – |
| RGVDVSLQGKDAWLPLHYAAWQGH [RIPK4] | 2.58 ± 0.42 | 2.45 ± 0.29 | – | – |
| RIKEVEHMTRHLEESEKAMQERVQ [LRRC45] | 5 ± 0.22 | 4.99 ± 0.21 | – | – |
| RKDFSELRSAGVEQLMYIKEDLII [FAM50A] | 2.24 ± 0.21 | 2.13 ± 0.34 | – | – |
| RKLFEVESVTHHDYRMELAQAGTP [SPAG8] | 3.64 ± 0.33 | 3.57 ± 0.21 | – | – |
| RKSVRYTRQKKNLPDSPLRFDGLP [TRIM15] | 3.59 ± 0.19 | 3.66 ± 0.12 | – | – |
| RLEAARLSLEEELSRVKAAALSER [LRRC45] | 3.71 ± 0.21 | 4.04 ± 0.39 | – | – |
| RLFLDGEEEKEWAFEESKIDEHHF [AASDHPPT] | 4.37 ± 0.26 | 4.42 ± 0.21 | – | – |

| Sequence | protein stability index [1] | protein stability index [2] | protein stability index (treatment: DMSO, c terminus: native) | protein stability index (treatment: MLN4924 1 uM, 8 h, c terminus: native) |
| --- | --- | --- | --- | --- |
| RLHNLYSTPRCAQQAALPRLSRRM [CBY2] | 2.28 ± 0.31 | 2.55 ± 0.4 | – | – |
| RLKKQLRAAQLQHSEKMAQYLEEE [CCDC6] | 4.06 ± 0.29 | 4.11 ± 0.26 | – | – |
| RLRKCYEVGMVKCGSRRERCGYRL [ESR2] | 2.54 ± 0.4 | 2.43 ± 0.29 | – | – |
| RLVKEGRFVPSNPIGILTTSYCEL [PPTC7] | 2.39 ± 0.21 | 2.12 ± 0.47 | – | – |
| RNLLVENIIDIYKQESTRPEKKSD [TRIM55] | 4.42 ± 0.51 | 4.73 ± 0.11 | – | – |
| RNQGNFSVVGTVLAATQAEKAVAN [ZC2HC1C] | 4.28 ± 0.15 | 4.24 ± 0.42 | – | – |
| RNSGIIGGKYLGRTKVVKPYSTVD [EFHC1] | 2.91 ± 0.26 | 3.46 ± 0.17 | – | – |
| RPEEEEDELAHRCSSFMAPPVTDL [CPOX] | 5.05 ± 0.26 | 5.03 ± 0.18 | – | – |
| RPELPPVCRARPRACSHLIRLMQR [RIPK4] | 2.52 ± 0.26 | 2.49 ± 0.31 | – | – |
| RPLQVNTADHRIYSYVVSRPQPRG [FAF2] | 3.27 ± 0.43 | 3.49 ± 0.2 | – | – |
| RQITSPVSGINGDIRAKKIASIAD [HNF4A] | 4.1 ± 0.25 | 4.13 ± 0.2 | – | – |
| RQVEKRRNSGPVVEKLKQMQEFFG [MMP1] | 3.04 ± 0.57 | 3.07 ± 0.14 | – | – |
| RQVPGSDPACYEFLWGPRALIETS [MAGEA6] | 2.62 ± 0.56 | 2.85 ± 0.35 | – | – |
| RRLLEGEDAHLTQYKKEPVTTRQV [KRT17] | 4.56 ± 0.25 | 4.66 ± 0.18 | – | – |
| RRSFLIEHQRSHTGERPHQCIECG [ZSCAN9] | 3.3 ± 0.39 | 3.8 ± 0.35 | – | – |
| RRSIRYGREVELKPYIAAHFDVLP [PTPRD] | 2.5 ± 0.41 | 2.46 ± 0.43 | – | – |
| RSHENKLRQLTAELAEHRCHPVER [PSD2] | 3.84 ± 0.18 | 4.02 ± 0.14 | – | – |
| RSLLLKYARTPTLDPDTMHARLRL [TRIM14] | 2.45 ± 0.35 | 2.37 ± 0.44 | – | – |
| RTEIISRSWFPSAPGSASSSKVSG [YJU2B] | 3.94 ± 0.13 | 3.97 ± 0.15 | – | – |
| RTLPAFQVPYPPRQLLRDFQSRLP [P3H4] | 2.76 ± 0.2 | 2.92 ± 0.54 | – | – |
| RTVNALEIELQAQHNLRYSLENTL [KRT33B] | 2.31 ± 0.25 | 2.29 ± 0.22 | – | – |
| RVAEVSRVRVELQEQNGRLQAELA [LRRC45] | 4.11 ± 0.3 | 4.19 ± 0.13 | – | – |
| RVNEKEIVRLRTIGELLAPAAPFD [WSB1] | 3.44 ± 0.2 | 3.5 ± 0.21 | – | – |

| Sequence | protein stability index [1] | protein stability index [2] | protein stability index (treatment: DMSO, c terminus: native) | protein stability index (treatment: MLN4924 1 uM, 8 h, c terminus: native) |
| --- | --- | --- | --- | --- |
| RVWLKRDSGQYWPSIYHTMASPCS [WDFY1] | 2.06 ± 0.27 | 2.16 ± 0.21 | – | – |
| RYAPLSFRNPMMSKLRNYRKDLAK [VTI1B] | 2.76 ± 0.23 | 2.74 ± 0.18 | – | – |
| SAAPGHPQDGSYPRQADHDDHECC [KCNA1] | 5.39 ± 0.4 | 5.6 ± 0.1 | – | – |
| SAASGARFPLDSAQDPDVGTNTVS [PCDHGC5] | 5.39 ± 0.12 | 5.2 ± 0.31 | – | – |
| SAEKCGPPPPIDNGDITSFLLSVY [CFHR2] | 2.4 ± 0.16 | 2.33 ± 0.27 | – | – |
| SAETGSPRLTMHYPCLEKPRIWSL [IRX6] | 2.4 ± 0.1 | 2.22 ± 0.43 | – | – |
| SAEWFITAVGAILAGGLCVGIYAT [ACSBG2] | 3.53 ± 0.57 | 3.18 ± 0.091 | – | – |
| SAIQALRSSVSRVFDCLKDGMRNK [MED27] | 2.7 ± 0.33 | 2.49 ± 0.28 | – | – |
| SALTDRTSRAPSTYTYTSRPRALP [RSPH3] | 4.01 ± 0.26 | 3.7 ± 0.29 | – | – |
| SAPPITPECRQVLKTSRKDVKDKE [CHGB] | 5.26 ± 0.25 | 5.41 ± 0.22 | – | – |
| SAVQYFQFYGYLSQQQNMMQDYVR [CARM1] | 2.6 ± 0.72 | 3.35 ± 0.64 | – | – |
| SCQEVLRKGCLRFQLPERGSRLCL [DFFB] | 2.27 ± 0.48 | 2.4 ± 0.29 | – | – |
| SCYKGHREIARYLLEQGAQVNRRS [FEM1A] | 2.93 ± 0.14 | 3.11 ± 0.48 | – | – |
| SDPEISDVDEDEPGGLVGSADVVS [PPFIA4] | 5.54 ± 0.34 | 5.35 ± 0.45 | – | – |
| SDSAPRNKISRFQAPISAPEYTYG [MFF] | 3.59 ± 0.71 | 3.56 ± 0.21 | – | – |
| SDVLIGDILVLLGASLYAISNVCE [SLC35F2] | 2.79 ± 0.28 | 3.36 ± 0.67 | – | – |
| SEKAANDDHSVRVAREDVRESCPP [CPXM2] | 5.49 ± 0.22 | 5.44 ± 0.061 | – | – |
| SELERESKVVVPPLPGKAFLRQLP [SNX3] | 3.67 ± 0.18 | 3.86 ± 0.59 | – | – |
| SEMKKCSDYESIEVPDSYTGPRLS [PPEF2] | 4.58 ± 0.35 | 4.53 ± 0.11 | – | – |
| SEWQRKLEAAEALLTLRNSAQAPP [DMRTC1] | 4.45 ± 0.55 | 4.63 ± 0.26 | – | – |
